# According to patent publication US20250163410:
# Tested on: VchCAST TnsB transposase (Tn6677; assayed with TnsA-TnsC and TniQ-Cascade) (Vibrio cholerae)
# Assay: cell_activity
# Conditions: T-RL; for binding signal: no IPTG
Sequence,binding signal [fold vs WT],further results
TGTTGATACAACCATAAAAGGATTATTACACCCATTAATTGATAATTATCACACCCA (double strand) [Right end ORF2a],,binding signal (log2 fold vs WT) (second replicate -1.82): -2.22
TGTTGATACAACCATCAAATGGTAATTACACCCATAAATTGATAATTATCACACCCA (double strand) [Right end ORF3a],,binding signal (log2 fold vs WT) (second replicate -0.05): -0.64
TGTTGATACAACCATTAAATGATAATTCCACCCATAATTTGATAATTATCACACCCA (double strand) [Right end ORF3b],,binding signal (log2 fold vs WT) (second replicate -0.65): -0.84
TGTTGATACAACCATTAAATGGTAATTCCACCCAAATATTGATAATTATCACACCCA (double strand) [Right end ORF3c],,binding signal (log2 fold vs WT) (second replicate -1.89): -2.49
TTTTGTGTTGAAACAACCATAAAGTGATAACAACGAATCAATTAAAATCATAGGCTTAATCGAAAAACAACCATATATTGATATCTCATAAAACAACCATAAGTTGATATTTTGGTGAAAAGGATATTCCAACCTTCATAGTTTAGTAAGAA (double strand) [Left end hyperactive 4669],1.69,
TTTTGTGTTGAAACAACCATAAAGTGATAACAACGAATCAATTAAAATCATAGGCTTAATCGAAAAACAACCATATCTTGATATCGCACAAAACAACCATAAGTTGATATTTTGGTGAAAAGGATATTCCAACCTTCATAGTTTAGTAAGAA (double strand) [Left end hyperactive 4672],1.54,
TTTTGTGTTGAAACAACCATAAAGTGATAACAACGAATCAATTAAAATCATAGGCTTAATCGAAAAACAACCATATCTTGATATCGCATAAAACAACCATAAGTTGATATTTTTGTGAATAGGATATTCCAACCTTCATAGTTTAGTAAGAA (double strand) [Left end hyperactive 4670],1.67,
TTTTGTGTTGAAACAACCATAAAGTGATATTTACGAATCAATTAAAATCATAGGCTTAATCGAAAAACAACCATATCTTGATATCGCATAAAACAACCATAAGTTGATATTTTGGTGAAAAGGATATTCCAACCTTCATAGTTTAGTAAGAA (double strand) [Left end hyperactive 4667],2.07,
TTTTGTGTTGATGCAACCATAAAGTGATAACAACGAATCAATTAAAATCATAGGCTTAATCGAAAAACAACCATATCTTGATATCGCATAAAACAACCATAAGTTGATATTTTGGTGAAAAGGATATTCCAACCTTCATAGTTTAGTAAGAA (double strand) [Left end hyperactive 4671],1.55,
